Substitutions are numbered along the chain they refer to. Names may count otherwise.

The labels stand for the following.
T1: recombinant human activated Factor VII (FVIIa) (human, UniProt P08709 61-212; P08709 213-466, ten glutamate residues of the Gla domain may be gamma-carboxylated)
T1 construct: chains tethered by a disulfide bond; also called Factor VIIa; rFVIIa
T1 sequence 1: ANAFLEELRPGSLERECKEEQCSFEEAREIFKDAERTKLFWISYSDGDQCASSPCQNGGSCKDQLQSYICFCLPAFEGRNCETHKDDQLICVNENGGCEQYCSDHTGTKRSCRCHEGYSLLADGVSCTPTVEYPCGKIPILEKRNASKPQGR
T1 sequence 2: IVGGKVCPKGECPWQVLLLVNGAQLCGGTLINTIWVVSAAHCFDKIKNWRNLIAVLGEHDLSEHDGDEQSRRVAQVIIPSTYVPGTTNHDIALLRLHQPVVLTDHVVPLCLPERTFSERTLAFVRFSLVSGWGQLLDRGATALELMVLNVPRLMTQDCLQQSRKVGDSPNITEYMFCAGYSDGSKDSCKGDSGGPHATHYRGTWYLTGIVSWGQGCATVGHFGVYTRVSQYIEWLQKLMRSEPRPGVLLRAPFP

B1: VH SEQ ID NO 554 / VL SEQ ID NO 502 (antibody, IgG4, V domains shown)
VH: QVQLQESGPGLVKPSDTLSLTCAVSGYSISSDSAWSWIRQFPGKGLEWIGYIQYSGSTNYNPSLKSRVTMSVDTSKNQFSLKLSSVTALDTAVYYCARSVNYYGNSFAVGPWGQGTLVTVSS
VL: EIVLTQSPATLSLSPGERATLSCRASQGVSDYLHWYQQKPGQAPRLLIKYTSQPATGIPARFSGSGSGTDFTLTISSLEPEDFAVYYCQNGHSFPLTFGQGTKLEIK
notes: humanized 11F2; IgG4 S228P/kappa
B2: VH SEQ ID NO 562 / VL SEQ ID NO 326 (antibody, IgG4, V domains shown)
VH: B1 VH with F41P, V72R
VL: B1 VL with V29I, Q42E, A84G, Q100A, I106L
notes: as for B1
B3: VH SEQ ID NO 562 / VL SEQ ID NO 358 (antibody, IgG4, V domains shown)
VH: B1 VH with F41P, V72R
VL: B1 VL with V29I
notes: as for B1
B4: VH SEQ ID NO 570 / VL SEQ ID NO 366 (antibody, IgG4, V domains shown)
VH: B1 VH with F41P, V72R, L89A
VL: B1 VL with V29L, H34A, Q42E, T51A
notes: as for B1
B5: VH SEQ ID NO 562 / VL SEQ ID NO 414 (antibody, IgG4, V domains shown)
VH: B1 VH with F41P, V72R
VL: B1 VL with H34A, T51A
notes: as for B1
B6: VH SEQ ID NO 562 / VL SEQ ID NO 422 (antibody, IgG4, V domains shown)
VH: B1 VH with F41P, V72R
VL: B1 VL with H34A, T51A, N90Q
notes: as for B1
B7: VH SEQ ID NO 570 / VL SEQ ID NO 406 (antibody, IgG4, V domains shown)
VH: B1 VH with F41P, V72R, L89A
VL: B1 VL with H34A, T51A, Q100A
notes: as for B1
B8: VH SEQ ID NO 570 / VL SEQ ID NO 342 (antibody, IgG4, V domains shown)
VH: B1 VH with F41P, V72R, L89A
VL: B1 VL with V29I, T69R, Q100A, I106L
notes: as for B1
B9: VH SEQ ID NO 562 / VL SEQ ID NO 310 (antibody, IgG4, V domains shown)
VH: B1 VH with F41P, V72R
VL: B1 VL with V29I, H34A, T51A
notes: as for B1
B10: VH SEQ ID NO 570 / VL SEQ ID NO 350 (antibody, IgG4, V domains shown)
VH: B1 VH with F41P, V72R, L89A
VL: B1 VL with V29I, Q100A, I106L
notes: as for B1
B11: VH SEQ ID NO 562 / VL SEQ ID NO 342 (antibody, IgG4, V domains shown)
VH: B1 VH with F41P, V72R
VL: B1 VL with V29I, T69R, Q100A, I106L
notes: as for B1
B12: VH SEQ ID NO 562 / VL SEQ ID NO 430 (antibody, IgG4, V domains shown)
VH: B1 VH with F41P, V72R
VL: B1 VL with H34A, T51A, A84G
notes: as for B1
B13: VH SEQ ID NO 570 / VL SEQ ID NO 310 (antibody, IgG4, V domains shown)
VH: B1 VH with F41P, V72R, L89A
VL: B1 VL with V29I, H34A, T51A
notes: as for B1
B14: VH SEQ ID NO 570 / VL SEQ ID NO 398 (antibody, IgG4, V domains shown)
VH: B1 VH with F41P, V72R, L89A
VL: B1 VL with H34A, Q42E
notes: as for B1
B15: VH SEQ ID NO 562 / VL SEQ ID NO 318 (antibody, IgG4, V domains shown)
VH: B1 VH with F41P, V72R
VL: B1 VL with V29I, Q42E
notes: as for B1
B16: VH SEQ ID NO 570 / VL SEQ ID NO 382 (antibody, IgG4, V domains shown)
VH: B1 VH with F41P, V72R, L89A
VL: B1 VL with V29L, Q42E, T51A
notes: as for B1
B17: VH SEQ ID NO 562 / VL SEQ ID NO 502 (antibody, IgG4, V domains shown)
VH: B1 VH with F41P, V72R
VL: B1 VL
notes: as for B1
B18: VH SEQ ID NO 562 / VL SEQ ID NO 494 (antibody, IgG4, V domains shown)
VH: B1 VH with F41P, V72R
VL: B1 VL with T51A, F83V
notes: as for B1
B19: VH SEQ ID NO 562 / VL SEQ ID NO 390 (antibody, IgG4, V domains shown)
VH: B1 VH with F41P, V72R
VL: B1 VL with H34A, Q42E, T51A
notes: as for B1
B20: VH SEQ ID NO 562 / VL SEQ ID NO 462 (antibody, IgG4, V domains shown)
VH: B1 VH with F41P, V72R
VL: B1 VL with T51A, Q100A
notes: as for B1
B21: VH SEQ ID NO 562 / VL SEQ ID NO 454 (antibody, IgG4, V domains shown)
VH: B1 VH with F41P, V72R
VL: B1 VL with Q42E, T51A
notes: as for B1
B22: VH SEQ ID NO 570 / VL SEQ ID NO 430 (antibody, IgG4, V domains shown)
VH: B1 VH with F41P, V72R, L89A
VL: B1 VL with H34A, T51A, A84G
notes: as for B1
B23: VH SEQ ID NO 562 / VL SEQ ID NO 478 (antibody, IgG4, V domains shown)
VH: B1 VH with F41P, V72R
VL: B1 VL with T51A, N90Q
notes: as for B1
B24: VH SEQ ID NO 562 / VL SEQ ID NO 366 (antibody, IgG4, V domains shown)
VH: B1 VH with F41P, V72R
VL: B1 VL with V29L, H34A, Q42E, T51A
notes: as for B1
B25: VH SEQ ID NO 570 / VL SEQ ID NO 438 (antibody, IgG4, V domains shown)
VH: B1 VH with F41P, V72R, L89A
VL: B1 VL with H34A, T51A, F83V
notes: as for B1
B26: VH SEQ ID NO 562 / VL SEQ ID NO 486 (antibody, IgG4, V domains shown)
VH: B1 VH with F41P, V72R
VL: B1 VL with T51A, A84G
notes: as for B1
B27: VH SEQ ID NO 570 / VL SEQ ID NO 414 (antibody, IgG4, V domains shown)
VH: B1 VH with F41P, V72R, L89A
VL: B1 VL with H34A, T51A
notes: as for B1
B28: VH SEQ ID NO 562 / VL SEQ ID NO 350 (antibody, IgG4, V domains shown)
VH: B1 VH with F41P, V72R
VL: B1 VL with V29I, Q100A, I106L
notes: as for B1
B29: VH SEQ ID NO 570 / VL SEQ ID NO 390 (antibody, IgG4, V domains shown)
VH: B1 VH with F41P, V72R, L89A
VL: B1 VL with H34A, Q42E, T51A
notes: as for B1
B30: VH SEQ ID NO 562 / VL SEQ ID NO 438 (antibody, IgG4, V domains shown)
VH: B1 VH with F41P, V72R
VL: B1 VL with H34A, T51A, F83V
notes: as for B1
B31: VH SEQ ID NO 570 / VL SEQ ID NO 446 (antibody, IgG4, V domains shown)
VH: B1 VH with F41P, V72R, L89A
VL: B1 VL with H34A
notes: as for B1
B32: VH SEQ ID NO 562 / VL SEQ ID NO 334 (antibody, IgG4, V domains shown)
VH: B1 VH with F41P, V72R
VL: B1 VL with V29I, T51A
notes: as for B1
B33: VH SEQ ID NO 570 / VL SEQ ID NO 334 (antibody, IgG4, V domains shown)
VH: B1 VH with F41P, V72R, L89A
VL: B1 VL with V29I, T51A
notes: as for B1
B34: VH SEQ ID NO 570 / VL SEQ ID NO 422 (antibody, IgG4, V domains shown)
VH: B1 VH with F41P, V72R, L89A
VL: B1 VL with H34A, T51A, N90Q
notes: as for B1
B35: VH SEQ ID NO 562 / VL SEQ ID NO 470 (antibody, IgG4, V domains shown)
VH: B1 VH with F41P, V72R
VL: B1 VL with T51A
notes: as for B1
B36: VH SEQ ID NO 570 / VL SEQ ID NO 454 (antibody, IgG4, V domains shown)
VH: B1 VH with F41P, V72R, L89A
VL: B1 VL with Q42E, T51A
notes: as for B1
B37: VH SEQ ID NO 570 / VL SEQ ID NO 358 (antibody, IgG4, V domains shown)
VH: B1 VH with F41P, V72R, L89A
VL: B1 VL with V29I
notes: as for B1
B38: VH SEQ ID NO 570 / VL SEQ ID NO 318 (antibody, IgG4, V domains shown)
VH: B1 VH with F41P, V72R, L89A
VL: B1 VL with V29I, Q42E
notes: as for B1
B39: VH SEQ ID NO 570 / VL SEQ ID NO 462 (antibody, IgG4, V domains shown)
VH: B1 VH with F41P, V72R, L89A
VL: B1 VL with T51A, Q100A
notes: as for B1
B40: VH SEQ ID NO 562 / VL SEQ ID NO 382 (antibody, IgG4, V domains shown)
VH: B1 VH with F41P, V72R
VL: B1 VL with V29L, Q42E, T51A
notes: as for B1
B41: VH SEQ ID NO 562 / VL SEQ ID NO 406 (antibody, IgG4, V domains shown)
VH: B1 VH with F41P, V72R
VL: B1 VL with H34A, T51A, Q100A
notes: as for B1
B42: VH SEQ ID NO 570 / VL SEQ ID NO 326 (antibody, IgG4, V domains shown)
VH: B1 VH with F41P, V72R, L89A
VL: B1 VL with V29I, Q42E, A84G, Q100A, I106L
notes: as for B1

The experiment has as its target T1, recombinant human activated Factor VII …. As to the kind of experiment: BLI (Fortebio).
Turning to B1, the Kd (commonly a measure of binding affinity in units of concentration) was determined as 18 nM.

For the molecule B2, the Kd is 0.78 nM.

For B3, the Kd stood at 0.95 nM.

As to B4, the Kd was determined as 14 nM.

With B5, the Kd stood at 8.8 nM.

For B6, the equilibrium dissociation constant (Kd) turned out to be 18 nM.

Regarding B7, the dissociation constant (Kd) was 20 nM.

Consider B8, for which the dissociation constant Kd is 1.5 nM.

As to B9, the Kd amounted to 6.4 nM.

As to B10, the Kd came to 1 nM.

On to B11, for which the dissociation constant (Kd) is 1.3 nM.

With B12, the Kd came out at 7.9 nM.

As for B13, the Kd stood at 13 nM.

Take B14: the Kd amounted to 29 nM.

Take B15: the Kd worked out at 0.92 nM.

As to B16, the dissociation constant Kd worked out at 1.3 nM.

Consider B17, for which the equilibrium dissociation constant (Kd) was 1.1 nM.

For B18, the Kd was found to be 1.6 nM.

For the molecule B19, the Kd was 10 nM.

On to B20, for which the equilibrium dissociation constant (Kd) came to 1.4 nM.

For B21, the Kd was found to be 1.4 nM.

As to B22, the Kd came to 16 nM.

As for B23, the dissociation constant (Kd) amounted to 2.6 nM.

As to B24, the Kd turned out to be 8.3 nM.

As to B25, the Kd is 210 nM.

Take B26: the Kd turned out to be 1.3 nM.

For B27, the Kd came to 21 nM.

As to B28, the Kd worked out at 0.93 nM.

As to B29, the Kd came out at 48 nM.

Take B30: the equilibrium dissociation constant (Kd) was 11 nM.

For the molecule B31, the Kd came out at 24 nM.

B32: the Kd was found to be 1.2 nM.

With B33, the dissociation constant Kd turned out to be 0.92 nM.

Take B34: the dissociation constant Kd amounted to 2400 nM.

As for B35, the Kd amounted to 1.4 nM.

As to B36, the dissociation constant Kd is 1.1 nM.

Take B37: the dissociation constant (Kd) was 0.85 nM.

Take B38: the dissociation constant Kd stood at 0.83 nM.

In the case of B39, the Kd stood at 1.1 nM.

With B40, the Kd came out at 1.2 nM.

B41: the Kd stood at 7.7 nM.

Take B42: the Kd was found to be 0.55 nM.

The record behind these values is US20220064329A1 (Novo Nordisk, published 2022).
